Consider eight molecules from US20120276193A1 (CYTOGUIDE A S, published 2012).

Assay [1] concerns the target rat CD163 on cells (rat) (UniProt D3Z9U2). Put plainly: flow cytometry, rat peritoneal macrophages, ED2-FITC.
Assay [2] shares this target. The assay can be described thus: flow cytometry, rat peritoneal macrophages stained with anti-rat CD172a-PE (ED9) and anti-rat CD163-FITC (ED2).
Assay [3] deals with human CD163 on cells (human) (UniProt Q86VB7). Put plainly: flow cytometry, R-PE mAb, fresh EDTA whole blood.
The target of assay [4] is purified recombinant CD163 immobilized on a Biacore chip (human) (UniProt Q86VB7). The assay can be described thus: SPR, immobilized recombinant CD163, 10 mM EDTA buffer.
Assay [5] addresses human CD163 on cells (human) (UniProt Q86VB7). The assay can be described thus: flow cytometry, fresh whole blood, citrate as anticoagulant.
For assay [6] the target is unchanged. The assay can be described thus: flow cytometry, fresh whole blood, heparin as anticoagulant.
The target is the same in assay [7]. The assay can be described thus: flow cytometry, PE mAb, CD163+ peripheral blood dendritic cells.
The target is the same in assay [8]. Put plainly: flow cytometry, PBMC isolated by density gradient centrifugation.
The target is the same in assay [9]. Put plainly: flow cytometry, PE mAb, CD14-ILT3+ dendritic cells in whole blood.
Assay [10] has the same target. Put plainly: flow cytometry, CD14+ILT3+HLA-DR+ monocytes; clone GHI/61 by paragraph 356.
For assay [11] the target is unchanged. Put plainly: quantitative flow cytometry, fresh whole blood, citrate as anticoagulant.
Assay [12] has the same target. The assay can be described thus: quantitative flow cytometry, fresh whole blood, heparin as anticoagulant.
The target is the same in assay [13]. Put plainly: quantitative flow cytometry (Quantibrite PE beads), fresh EDTA whole blood.
Assay [14] has the same target. The assay can be described thus: quantitative flow cytometry, PBMC isolated by density gradient centrifugation.
Assay [15] has the same target. The assay can be described thus: flow cytometry, CD163low subset of peripheral blood dendritic cells; clone GHI/61 by paragraph 356.
The target is the same in assay [16]. The assay can be described thus: flow cytometry, CD163high subset of peripheral blood dendritic cells; clone GHI/61 by paragraph 356.
Assay [17] shares this target. The assay can be described thus: 125I-labelled mAb on stable CD163 transfected Flp-In CHO cells (non-transfected cells: 1.23%).
For assay [18], the target named is rat CD163 on cells (rat) (UniProt D3Z9U2). The assay can be described thus: flow cytometry, rat peritoneal macrophages, negative control staining with IgG-FITC.
Assay [19] addresses human CD163 on cells (human) (UniProt Q86VB7). Put plainly: flow cytometry, fresh whole blood, EDTA as anticoagulant.
Assay [20] has the same target. The assay can be described thus: flow cytometry, mononuclear cells from buffy coat, Mac2-158-FITC with KN2/NRY-Alexa Fluor647.
The target is the same in assay [21]. The assay can be described thus: 125I-labelled mAb on stable CD163 transfected Flp-In CHO cells (non-transfected cells: 1.37%).
Assay [22] shares this target. The assay can be described thus: flow cytometry, human mononuclear cells from buffy coats stained with Mac2-158-FITC, anti-CD14-PE and KN2/NRY-Alexa Fluor647.
The target is the same in assay [23]. The assay can be described thus: flow cytometry, peripheral blood dendritic cells, negative staining control.
The target is the same in assay [24]. The assay can be described thus: quantitative flow cytometry (Quantibrite PE beads), fresh EDTA whole blood, isotype control.
Assay [25] addresses purified recombinant CD163 immobilized on a Biacore chip (human) (UniProt Q86VB7). The assay can be described thus: SPR, immobilized recombinant CD163, 2 mM free Ca2+.
Assay [26] deals with human CD163 on cells (human) (UniProt Q86VB7). The assay can be described thus: quantitative flow cytometry, fresh whole blood, EDTA as anticoagulant.
Assay [27] shares this target. Put plainly: 125I-labelled mAb on stable CD163 transfected Flp-In CHO cells (non-transfected cells: 1.47%).
The target in assay [28] is T1, murine CD163 in solubilized murine spleen (mouse, UniProt Q2VLH6 39-1121, limits assumed).
T1 construct: also called non-reduced CD163
The assay can be described thus: western blot of solubilized murine spleen with hybridoma supernatants. An excerpt:
The clones were screened by testing binding of supernatants to murine CD163 in solubilized murine spleen loaded on a SDS-PAGE and western blotted, using standard techniques.

purified recombinant CD163 immobilized on a Biacore chip (human), sequence (Q86VB7 42-1050 limits assumed): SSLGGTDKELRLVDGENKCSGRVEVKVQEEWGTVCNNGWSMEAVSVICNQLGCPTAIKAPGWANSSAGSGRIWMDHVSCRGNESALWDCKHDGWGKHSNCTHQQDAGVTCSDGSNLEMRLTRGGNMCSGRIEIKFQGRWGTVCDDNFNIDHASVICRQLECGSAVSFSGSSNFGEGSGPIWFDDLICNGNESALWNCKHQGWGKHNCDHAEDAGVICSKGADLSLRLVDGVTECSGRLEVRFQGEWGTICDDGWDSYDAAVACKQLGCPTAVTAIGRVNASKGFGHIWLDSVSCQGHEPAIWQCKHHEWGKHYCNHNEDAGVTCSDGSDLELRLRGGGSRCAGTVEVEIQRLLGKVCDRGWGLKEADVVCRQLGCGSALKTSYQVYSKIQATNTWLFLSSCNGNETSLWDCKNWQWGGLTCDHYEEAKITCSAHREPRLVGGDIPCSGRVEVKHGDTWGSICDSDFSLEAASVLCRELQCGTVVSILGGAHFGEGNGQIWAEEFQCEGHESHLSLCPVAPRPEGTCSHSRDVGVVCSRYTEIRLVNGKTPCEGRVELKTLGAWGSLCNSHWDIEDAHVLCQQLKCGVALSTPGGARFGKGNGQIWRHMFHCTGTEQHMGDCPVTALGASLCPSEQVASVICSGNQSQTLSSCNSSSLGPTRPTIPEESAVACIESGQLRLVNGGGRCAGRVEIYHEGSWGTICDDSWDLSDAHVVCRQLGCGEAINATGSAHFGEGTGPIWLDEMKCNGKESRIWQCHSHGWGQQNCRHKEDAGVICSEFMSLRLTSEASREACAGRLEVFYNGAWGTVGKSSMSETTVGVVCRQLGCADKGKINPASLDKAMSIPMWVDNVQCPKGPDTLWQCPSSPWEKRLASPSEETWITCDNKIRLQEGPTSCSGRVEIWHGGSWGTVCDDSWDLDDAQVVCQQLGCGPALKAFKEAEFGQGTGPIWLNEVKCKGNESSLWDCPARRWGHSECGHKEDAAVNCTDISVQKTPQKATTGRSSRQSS
T1 sequence (Q2VLH6 39-1121 limits assumed): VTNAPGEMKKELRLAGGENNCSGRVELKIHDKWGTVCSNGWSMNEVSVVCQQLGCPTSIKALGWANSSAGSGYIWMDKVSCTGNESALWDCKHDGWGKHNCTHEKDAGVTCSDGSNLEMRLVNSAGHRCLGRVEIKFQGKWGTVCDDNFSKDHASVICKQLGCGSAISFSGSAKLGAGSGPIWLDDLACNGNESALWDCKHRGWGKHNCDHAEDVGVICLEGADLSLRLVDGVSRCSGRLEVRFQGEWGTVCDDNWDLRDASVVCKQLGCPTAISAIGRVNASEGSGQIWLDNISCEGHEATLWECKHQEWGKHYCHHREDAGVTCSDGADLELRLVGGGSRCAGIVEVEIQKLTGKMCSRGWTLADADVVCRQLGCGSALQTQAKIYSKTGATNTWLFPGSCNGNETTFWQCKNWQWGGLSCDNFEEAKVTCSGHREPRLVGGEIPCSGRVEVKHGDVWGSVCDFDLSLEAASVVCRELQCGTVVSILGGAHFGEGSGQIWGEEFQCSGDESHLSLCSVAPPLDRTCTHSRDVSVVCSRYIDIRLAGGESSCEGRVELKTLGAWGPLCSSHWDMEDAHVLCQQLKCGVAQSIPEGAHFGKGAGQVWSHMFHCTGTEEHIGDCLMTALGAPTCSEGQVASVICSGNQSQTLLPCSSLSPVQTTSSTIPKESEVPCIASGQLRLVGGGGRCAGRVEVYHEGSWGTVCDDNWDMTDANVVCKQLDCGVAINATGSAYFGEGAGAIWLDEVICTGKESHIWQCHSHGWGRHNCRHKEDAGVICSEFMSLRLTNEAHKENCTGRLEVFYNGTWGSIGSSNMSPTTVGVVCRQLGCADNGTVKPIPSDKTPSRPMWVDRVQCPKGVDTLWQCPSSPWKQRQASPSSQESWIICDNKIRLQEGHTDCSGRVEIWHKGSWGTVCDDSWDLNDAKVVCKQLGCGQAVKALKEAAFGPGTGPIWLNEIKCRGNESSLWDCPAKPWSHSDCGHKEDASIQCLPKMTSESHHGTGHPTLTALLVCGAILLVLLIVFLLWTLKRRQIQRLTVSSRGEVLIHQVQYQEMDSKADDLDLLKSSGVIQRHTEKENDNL

ED2 (antibody): in the assay with rat CD163 on cells (rat) [1], the percent of peritoneal macrophages CD163 positive amounted to 42%. Also, in the assay with rat CD163 on cells (rat) [2], the share of cells in the lower right quadrant (CD163 FITC positive, CD172a PE negative) stood at 0.01% and the share of cells in the upper right quadrant (CD163 FITC positive, CD172a PE positive) came to 42.9%.
As to GHI/61 (antibody), the fraction of CD14+ monocytes stained positive for CD163 in assay [3] was 63%; in [5], 64.4%; in assay [6], 0.82%; in assay [8], 1.26%. Moreover, the Kd in assay [4] is 29 nM. Further, the figures for the MFI in assay [7], in assay [15] and in assay [16] were 22.3 MFI, 4.2 MFI and 34.6 MFI, respectively. Moreover, the fraction of peripheral blood dendritic cells recognized in assay [9] came out at 10.5%. The percent of cells stained positive in [10] came out at 88%. The density of CD163 receptors per monocyte (PE antibodies bound per cell) worked out at 1150 per monocyte in assay [11], 58.3 per monocyte in [12], 1030 per monocyte in assay [13] and 108 per monocyte in [14]. Besides, the percentage of cell-associated radioactivity in assay [17] is 1.23%.
Turning to IgG-FITC (antibody), in the assay with rat CD163 on cells (rat) [18], the share of cells in the lower right quadrant (IgG FITC positive) turned out to be 0.41% and the share of cells in the upper right quadrant came out at 0.06%.
As for Mac2-158 (antibody), the fraction of CD14+ monocytes stained positive for CD163 came to 84.1% in assay [3]; 87.2% in assay [19]; 84% in assay [5]; 84.4% in assay [6]; 81.1% in assay [8]. Moreover, the MFI in assay [7] was 108 MFI. Moreover, the fraction of peripheral blood dendritic cells recognized in assay [9] was 32.3%. The density of CD163 receptors per monocyte (PE antibodies bound per cell) in assay [11] amounted to 17700 per monocyte; in assay [12], 18900 per monocyte; in assay [13], 17700 per monocyte; in [14], 11400 per monocyte. The molecule also yielded a percent of peripheral monocytes showing co-binding of KN2/NRY and Mac2-158 in [20] of 70%. Further, in [21], the percentage of cell-associated radioactivity is 61.3%. In assay [22], this molecule had a share of cells in the lower right quadrant (Mac2-158-FITC positive, CD14-PE negative) of 1.22%. In [22], this molecule showed a share of cells in the lower right quadrant (Mac2-158-FITC positive, KN2/NRY-Alexa Fluor 647 negative) of 4.45%. In addition, the share of cells in the upper right quadrant (Mac2-158-FITC positive, CD14-PE positive) in assay [22] turned out to be 73.9%. In addition, in assay [22], the share of cells in the upper right quadrant (positive for both Mac2-158-FITC and KN2/NRY-Alexa Fluor 647) stood at 70.7%.
“Mouse IgG, PE, k isotype control, MOPC-21 (antibody)” displayed an MFI in assay [23] of 1.23 MFI.
For the molecule “R-PE-conjugated Mouse IgG1, k isotype control (MCG1) (antibody)”, the background staining (PE antibodies bound per cell) in assay [24] was found to be 94 per monocyte.
As for RM3/1 (antibody), the fraction of CD14+ monocytes stained positive for CD163 in assay [3] amounted to 0.33%; in assay [5] it was 12.5%; in assay [6], 3.33%; in [8], 2.5%. Also, in assay [25], the Kd worked out at 0.6 nM. For the same molecule, the density of CD163 receptors per monocyte (PE antibodies bound per cell) in [26] turned out to be 86 per monocyte; in assay [11], 207 per monocyte; in [12], 210 per monocyte; in [13], 101 per monocyte; in assay [14], 132 per monocyte. Besides, the percentage of cell-associated radioactivity in assay [27] worked out at 7.77%.

B1: 3E10B10 (antibody, V domains shown)
VH: QVKLQESGGGLVQPKESLKISCAASGFTFSTAAMYWVRQAPGKGLDWVARIRTKPDNYATYYPASVKGRFTISRDDSKGMVYLQMDNLKTEDTAIYYCTAAYYYDGRFDYWGQGVMVTVAS
VL: DIVMTQTPSSQAVSAGERVTMRCKSSQSLLYSENKKNYLAWYQQKPGQSPKLLISWASTRESGVPDRFIGSGSGTDFTLTISSVQAEDLAVYYCDQYYDPPFTFGSGTKLEIK
notes: Rat IgG2a hybridoma antibody raised against mouse CD163 domain 1-3; also called rat anti-mouse E10B10 (IgG2a)
B1: the binding result in assay [28] is on record as “binds”.
